Experimental data from patent publication CN111647079A (UNIV BEIBU GULF, dated 2020).

What was measured:
[1] = biological target: T1, 2019-NCOV Nucleocapsid (原核表达N蛋白) (SARS-CoV-2, UniProt P0DTC9 1-419)
[2] = biological target: NCOV-SARI-N-his (真核表达N蛋白) (SARS-CoV-2, UniProt P0DTC9 1-419)
[3] = biological target: T1, 2019-NCOV Nucleocapsid (原核表达N蛋白); assay: BLI (Fortebio BLItz), […], global fit

B1: Fab 20抗体 (抗新型冠状病毒N蛋白的中和抗体) (Fab, V domains shown)
VH: VQLLEQSGAEVKKPGSSVKVSCKASGGTFSSYAISWVRQAPGQGLEWMGGTIPIFGTANYAQKFQGRVTITADESTSTAYMELSSLRSEDTAVYYCARGGWSSSAGGYYGMDVWGQGTTVTVSS
VL: not shown
notes: also called HFab20/LFab20
- EC50 [1]: 3.98 µg/mL
- EC50 [2]: 4.75 µg/mL
- Kd [3]: 111 nM
